For 33 molecules, Kd results are on record in patent publication US20210355194A1 (TWIST BIOSCIENCE, published 2021).

Sequences and labels used below:
B1: variant 6-44 (Fc fusion)
VHH: EVQLVESGGGLVQPGGSLRLSCAASGGTFGVYHMGWFRQAPGKEREFIGRITWTDGSTYYADSVKGRFTISADNSKNTAYLQMNSLKPEDTAVYYCFGLLEVYDMTFDYWGQGTLVTVSS
B2: variant 5-20 (Fc fusion)
VHH: EVQLVESGGGLVQPGGSLRLSCAASGRTIVPYTMGWFRQAPGKERELVAAISPSAFTEYADSVKGRFTISADNSKNTAYLQMNSLKPEDTAVYYCAARRWGYDWGQGTLVTVSS
B3: variant 6-39 (Fc fusion)
VHH: EVQLVESGGGLVQPGGSLRLSCAASGFTFSPSWMGWFRQAPGKEREFVAAISWSGGSTAYADSVKGRFTISADNSKNTAYLQMNSLKPEDTAVYYCHGLGEGDPYGDYEGYFDLWGQGTLVTVSS
B4: variant 6-6 (Fc fusion)
VHH: EVQLVESGGGLVQPGGSLRLSCAASGTTLDYYAMGWFRQAPGKERELVAAISWSGGSTAYADSVKGRFTISADNSKNTAYLQMNSLKPEDTAVYYCAREDYYDSSGYSWGQGTLVTVSS
B5: variant 5-63 (Fc fusion)
VHH: EVQLVESGGGLVQPGGSLRLSCAASGFSLDYYDMGWFRQAPGKEREFVAALGWSGGSTDYADSVKGRFTISADNSKNTAYLQMNSLKPEDTAVYYCAAGNGGRYGIVERWGQGTLVTVSS
B6: variant 6-26 (Fc fusion)
VHH: EVQLVESGGGLVQPGGSLRLSCAASGDTFSTSWMGWFRQAPGKEREFVATINTGGGTNYADSVKGRFTISADNSKNTAYLQMNSLKPEDTAVYYCARVTTSFDYWGQGTLVTVSS
B7: variant 6-77 (Fc fusion)
VHH: EVQLVESGGGLVQPGGSLRLSCAASGFTFDRSWMGWFRQAPGKEREFVAAVTEGGTTSYADSVKGRFTISADNSKNTAYLQMNSLKPEDTAVYYCARADYDFDYWGQGTLVTVSS
B8: variant 6-30 (Fc fusion)
VHH: EVQLVESGGGLVQPGGSLRLSCAASGFAFGDSWMGWFRQAPGKEREFVATINWSGVTAYADSVKGRFTISADNSKNTAYLQMNSLKPEDTAVYYCARADGYFDYWGQGTLVTVSS
B9: variant 6-82 (Fc fusion)
VHH: EVQLVESGGGLVQPGGSLRLSCAASGSSLDAYGMGWFRQAPGKEREFVAAISWGGGSIYYADSVKGRFTISADNSKNTAYLQMNSLKPEDTAVYYCARLSQGMVALDYWGQGTLVTVSS
B10: variant 6-42 (Fc fusion)
VHH: EVQLVESGGGLVQPGGSLRLSCAASGDTYGSYWMGWFRQAPGKEREFVAVITSGGSTNYADSVKGRFTISADNSKNTAYLQMNSLKPEDTAVYYCTHVQNSYYYAMDVWGQGTLVTVSS
B11: variant 6-67 (Fc fusion)
VHH: EVQLVESGGGLVQPGGSLRLSCAASGSFSNYAMGWFRQAPGKEREFVAAISSSGALTSYADSVKGRFTISADNSKNTAYLQMNSLKPEDTAVYYCWIVGPGPLDGMDVWGQGTLVTVSS
B12: variant 6-102 (Fc fusion)
VHH: EVQLVESGGGLVQPGGSLRLSCAASGSSFSAYAMGWFRQAPGKEREFVSAIDSEGTTTYADSVKGRFTISADNSKNTAYLQMNSLKPEDTAVYYCAGDYNFWSGFDHWGQGTLVTVSS
B13: variant 6-97 (Fc fusion)
VHH: EVQLVESGGGLVQPGGSLRLSCAASGFTFSSLAMGWFRQAPGKEREFVAAITWSGDITNYADSVKGRFTITADNSKNTAYLQMNSLKPEDTAVYYCLRLSSSGFDHWGQGTLVTVSS
B14: variant 6-72 (Fc fusion)
VHH: EVQLVESGGGLVQPGGSLRLSCAASGSTLSINAMGWFRQAPGKEREFVAAIDWSGGSTAYADSVKGRFTISADNSKNTAYLQMNSLKPEDTAVYYCARDSSATRTGPDYWGQGTLVTVSS
B15: variant 6-112 (Fc fusion)
VHH: EVQLVESGGGLVQPGGSLRLSCAASGGTFSAYHMGWFRQAPGKERELVTIIDNGGPTSYADSVKGRFTISADNSKNTAYLQMNSLKPEDTAVYYCTALLYYFDNSGYNFDPFDIWGQGTLVTGSS
B16: variant 6-95 (Fc fusion)
VHH: EVQLVESGGGLVQPGGSLRLSCAASGIPSSIRAMGWFRQAPGKEREFVAVIRWTGGSTYYADSVKGRFTISADNSKNTAYLQMNSLKPEDTAVYYCARDIGYYDSSGYYNDGGFDYWGQGTLVTVSS
B17: variant 6-76 (Fc fusion)
VHH: EVQLVESGGGLVQPGGSLRLSCAASGLAFDFDGMGWFRQAPGKEREGVAAINSGGSTYYADSVKGRFTISADNSKNTAYLQMNSLKPEDTAVYYCARFFRAHDYWGQGTLVTVSS
notes: VHH-Fc
B18: variant 6-70 (Fc fusion)
VHH: EVQLVESGGGLVQPGGSLRLSCAASGFNLDDYADMGWFRQAPGKEREFVAAIGWGGGSTRYADSVKGRFTISADNSKNTAYLQMNSLKPEDTAVYYCAREILWFGEFGEPNVWGQGTLVTVSS
B19: variant 6-106 (Fc fusion)
VHH: EVQLVESGGGLVQPGGSLRLSCAASGIPSTLRAMGWFRQAPGKEREFVAATSWSGGSKYYADSVKGRFTISADNSKNTAYLQMNSLKPEDTAVYYCATDLYYMDVWGQGTLVTVSS
B20: variant 6-68 (Fc fusion)
VHH: EVQLVESGGGLVQPGGSLRLSCAASGFTLSDRAMGWFRQAPGKEREYVAHITAGGLSNYADSVKGRFTISADNSKNTAYLQMNSLKPEDTAVYYCVHLASQTGAGYFDLWGQGTLVTVSS
B21: variant 6-75 (Fc fusion)
VHH: EVQLVESGGGLVQPGGSLRLSCAASGGTFSTYWMGWFRQAPGKEREFVAAISRSGGNTYYADSVKGRFTISADNSKNTAYLQMNSLKPEDTAVYYCVRHSGTDGDSSFDYWGQGTLVTVSS
B22: variant 6-84 (Fc fusion)
VHH: EVQLVESGGGLVQPGGSLRLSCAASGFTPDDYAMGWFRQAPGKEREFVAAINSGGSYTYYADSVKGRFTISADNSKNTAYLQMNSLKPEDTAVYYCARDRGPWGQGTLVTVSS
B23: variant 6-90 (Fc fusion)
VHH: EVQLVESGGGLVQPGGSLRLSCAASGFPFSIWPMGWFRQAPGKEREFVAAVRWSSTYYADSVKGRFTISADNSKNTAYLQMNSLKPEDTAVYYCATGECDGGSCSLAYWGQGTLVTVSS
B24: variant 6-66 (Fc fusion)
VHH: EVQLVESGGGLVQPGGSLRLSCAASGLTFSLFAMGWFRQAPGKERELVAAISSGGSTDYADSVKGRFTISADNSKNTAYLQMNSLKPEDTAVYYCARGNTKYYYDSSGYSSAFDYWGQGTLVTVSS
B25: variant 6-99 (Fc fusion)
VHH: EVQLVESGGGLVQPGGSLRLSCAASGIPFRSRTMGWFRQAPGKEREFVAGISRSGASTAYADSVKGRFTISADNSKNTAYLQMNSLKPEDTAVYYCTHANDYGDYWGQGTLVTVSS
B26: variant 6-108 (Fc fusion)
VHH: EVQLVESGGGLVQPGGSLRLSCAASGGTFGSYGMGWFRQAPGKEREFVAAIRWSGGITYYADSVKGRFTISADNSKNTAYLQMNSLKPEDTAVYYCARERYWNPLPYYYYGMDVWGQGTLVTVSS
B27: variant 6-74 (Fc fusion)
VHH: EVQLVESGGGLVQPGGSLRLSCAASGFAFGDSWMGWFRQAPGKERELVAAITSGGSTDYADSVKGRFTISADNSKNTAYLQMNSLKPEDTAVYYCARGLLWFGELFGYWGQGTLVTVSS
B28: variant 6-82 (Fc fusion)
VHH: B9 VHH
B29: variant 6-78 (Fc fusion)
VHH: EVQLVESGGGLVQPGGSLRLSCAASGRTYDAMGWFRQAPGKEREFVASVTSGGYTHYADSVKGRFTISADNSKNTAYLQMNSLKPEDTAVYYCAKFGRKIVGATELDYWGQGTLVTVSS
notes: VHH-Fc
B30: variant 6-62 (Fc fusion)
VHH: EVQLVESGGGLVQPGGSLRLSCAASGSTFSGNWMGWFRQAPGKEREFVAVISWTGGSTYYADSVKGRFTISADNSKNTAYLQMNSLKPEDTAVYYCATHNSLSGFDYWGQGTLVTVSS
B31: variant 6-73 (Fc fusion)
VHH: EVQLVESGGGLVQPGGSLRLSCAASGHTFSGYAMGWFRQAPGKEREFVAVITREGSTYYADSVKGRFTISADNSKNTAYLQMNSLKPEDTAVYYCARLGGEGFDYWGQGTLVTVSS
notes: VHH-Fc
B32: variant 6-71 (Fc fusion)
VHH: EVQLVESGGGLVQPGGSLRLSCAASGITFSNDAMGWFRQAPGKEREFVAIITSSDTNDTTNYADSVKGRFTISADNSKNTAYLQMNSLKPEDTAVYYCARLHYYDSSGYFDYWGQGTLVTVSS
B33: variant 6-103 (Fc fusion)
VHH: EVQLVESGGGLVQPGGSLRLSCAASGRTSSPIAMGWFRQAPGKEREPVAVRWSDDYTYYADSVKGRFTISADNSKNTAYLQMNSLKPEDTAVYYCAKKLGGYYAFDIWGQGTLVTVSS

One assay has as its target CV S-protein construct 6 trimer TP31001F (SARS-CoV-2, UniProt P0DTC2 14-1208). In words: SPR. In general terms: In SPR one partner is held on a chip, and binding of the other changes the refractive index at the surface.
B1 yielded a Kd of 0.9 nM. On the same count and under the same terms, then B2, with 1.1 nM; and B3, with 0.1 nM. The same measure, in the same setting: in the case of B4 it was 67.7 nM; in that of B5, 0.4 nM; in that of B6, 0.07 nM. Turning to B7, the Kd is 3.5 nM.

As to B8, the affinity, expressed as Kd, was 0.1 nM.

The molecule B9 displayed an equilibrium dissociation constant (Kd) of 0.6 nM. Still for that read-out and setting: in the case of B10 it was 7.8 nM.

The next assay shares this target. Briefly: SPR. This is another data set of the same source.
Molecule B11 yielded a dissociation constant Kd of 0.1 nM. Same read-out and setting: in the case of B12 it was 0.9 nM; in that of B13, 57.9 nM. B14 returned a Kd of 2 nM. On to B15, for which the Kd amounted to 43.8 nM. Molecule B16 yielded a Kd of 7.6 nM.

In turn, B17 registered a Kd of 1.8 nM. B18: the Kd worked out at 1.1 nM. On to B19, for which the Kd was found to be 1070 nM. Same read-out and setting: then B20, with 0.7 nM; and B21, with 1 nM; and B22, with 0.7 nM. Still for that read-out and setting: then B23, with 17.1 nM; and B24, with 7.7 nM; and B25, with 3.4 nM. In turn, B26 came in with a dissociation constant (Kd) of 0.3 nM. The same measure, in the same setting: in the case of B27 it was 498 nM; in that of B28, 0.6 nM; in that of B29, 0.4 nM. On the same count and under the same terms, in the case of B30 it was 198 nM; in that of B31, 0.5 nM; in that of B32, 0.6 nM.

Consider B33, for which the dissociation constant (Kd) turned out to be 1 nM.

As a reminder, the Kd is the concentration at which binding is half-saturated. The low end stands for higher affinity, the high end for lower affinity.
